The record followed here is the RNAGym collection of RNA variant scans (doi:10.7554/elife.80360).

B1: Hairpin Ribozyme (parent)
chain: GUCCUCUUUCACGUGCGCGUGAAAGAGAGAAGUGAACCAGAGAAACACACGUUGUGGUAUAUUACCUGGUA

In this series the parent is B1. Put plainly: self-cleavage, relative activity (ratio to wild type); higher = more cleavage; co-transcriptional.
With GUCCUGUUUGACGUGCGCGUGAAAGAGAGAAGUGAACCAGAGAAACACACGUUGUGGUAUAUUACCUGGUA [C6G C10G], the self-cleavage is 0.277.
The value for GUCCUAUUUCACGGGCGCGUGAAAGAGAGAAGUGAACCAGAGAAACACACGUUGUGGUAUAUUACCUGGUA [C6A U14G] was 0.499; that for GUCCUGUUUCACGUGCGCGUGAAAGAGAGAAGUGAACCAGAGAAACACACGUUGGGGUAUAUUACCUGGUA [C6G U55G] was 0.167.
The value for GUCCUGUUUCACGUGCGCGUGAAAGAGAGAAGUGAACCAGAGAAACACACGUUGAGGUAUAUUACCUGGUA [C6G U55A] was 0.13.
To GUCCUGUUUCACGUGCGCGUGAAAGAGAGAAGUGAACCAGAGAAACACACGUUGCGGUAUAUUACCUGGUA [C6G U55C] belongs 0.156; to GUCCUAUUUCACGUGCGCGUGAAAGAGAGAAGUGAACCAGAGAAACACACGUUGAGGUAUAUUACCUGGUA [C6A U55A], 0.202; to GUCCUAUUUCACGUGCGCGUGAAAGAGAGAAGUGAACCAGAGAAACACACGUUGGGGUAUAUUACCUGGUA [C6A U55G], 0.14.
For GUCCUGUUUCACGUGCGCGUGAAAGAGAGAAGUGAACCAGAGAAACAAACGUUGUGGUAUAUUACCUGGUA [C6G C48A], the self-cleavage was determined as 0.171.
For the variant GUCCUGUUUCACGUGCGCGUGAAAGAAAGAAGUGAACCAGAGAAACACACGUUGUGGUAUAUUACCUGGUA [C6G G27A], the self-cleavage came out at 0.135.
The value for GUCCUGUUUCACGUGCGCGUGAAAGAUAGAAGUGAACCAGAGAAACACACGUUGUGGUAUAUUACCUGGUA [C6G G27U] was 0.161.
To GUCCUGUUUCACGUGCGCGUGAAAGACAGAAGUGAACCAGAGAAACACACGUUGUGGUAUAUUACCUGGUA [C6G G27C] belongs 0.174.
The value for GUCCUAUUUCACGUGCGCGUGAAAGAGAGAAGCGAACCAGAGAAACACACGUUGUGGUAUAUUACCUGGUA [C6A U33C] was 0.0869; that for GUCCUGUUUCACGUGCGCGUGAAAGAGAGAAGUGAACCAGAGAAACACACGUUCUGGUAUAUUACCUGGUA [C6G G54C] was 0.265; that for GUCCUGUUUCACGUGCGCGUGAGAGAGAGAAGUGAACCAGAGAAACACACGUUGUGGUAUAUUACCUGGUA [C6G A23G] was 0.446.
Consider GUCCUGUUUCACGUGCGCGUGAUAGAGAGAAGUGAACCAGAGAAACACACGUUGUGGUAUAUUACCUGGUA [C6G A23U], for which the self-cleavage stood at 0.344.
To GUCCUGUUUCACGUGCGCGUGAAAGAGAGAAGUGAACCAGAGAAACACACGUUGUGGUACAUUACCUGGUA [C6G U60C] belongs 0.618; to GUCCUGUUUCACGUGCGCGUGAAAGAGAGAAGUGAACCAGAGAAACACACGUUGUGGUUUAUUACCUGGUA [C6G A59U], 0.192; to GUCCUGUUUCACGUGCGCGUGAAAGAGAGAAGUGAACCAGAGAAACACACGUUGUGGUAUAUUACCUGGUC [C6G A71C], 0.855.
The value for GUCCUGUUUCACGUGCGCGUGAAAGAGAGAAGUGAACCAGAGAAACACACGUGGUGGUAUAUUACCUGGUA [C6G U53G] was 0.454; that for GUCCUGUUUCACGUGCGCGUGAAAGAGAGAAGUGAACCAUAGAAACACACGUUGUGGUAUAUUACCUGGUA [C6G G40U] was 0.103.
To GUCCUGUUUCACGUGCGCGUGAAAGAGAGAAGUGAACCAGAGAAACACACGUUGUGUUAUAUUACCUGGUA [C6G G57U] belongs 0.238; to GUCCUGUUUCACGUGCGCGUCAAAGAGAGAAGUGAACCAGAGAAACACACGUUGUGGUAUAUUACCUGGUA [C6G G21C], 0.125.
Take GUCCUGUUUCACGUGCGCGUUAAAGAGAGAAGUGAACCAGAGAAACACACGUUGUGGUAUAUUACCUGGUA [C6G G21U]: the self-cleavage was determined as 0.181.
The value for GUCCUGUUUCACGUGCGCGUGAAAGAGAGAAGUGAACCAGAGAAACACACGUUGUGGUAUAUUACGUGGUA [C6G C66G] was 0.166.
To GUCCUGUUUCACGUGCGCGUGAAAGAGAGAAGUGAACCAGAGAAACACACGUUGUGGUAUAUUAACUGGUA [C6G C65A] belongs 0.527; to GUCCUGUUUCACGUGCGCGUGAAAGAGAGAAGUGAACCAGAGAAACACACGUUGUGGUAUACUACCUGGUA [C6G U62C], 0.116; to GUCCUAUUUCACGUGCGCGUGAAAGAGAGAAGUGAACCAGAGAAACACACGUUGUGGUAUAUUACCUGGGA [C6A U70G], 0.325.
The value for GUCCUGUUUCACGUGCGCGUGAAAGAGAGAAGUGAACCAGAGAAACACACGAUGUGGUAUAUUACCUGGUA [C6G U52A] was 0.433; that for GUCCUGUUUCACGUGCGCGUGAAUGAGAGAAGUGAACCAGAGAAACACACGUUGUGGUAUAUUACCUGGUA [C6G A24U] was 0.331.
Turning to GUCCUGUUUCACGUGCGCGUGAAAGAGAGAAGUGAACCAGAGAAAUACACGUUGUGGUAUAUUACCUGGUA [C6G C46U], the self-cleavage was 0.143.
The value for GUCCUGUUUCACGUGCGCGUGAAAGAGAGAAGUGAACCAGAGAAAAACACGUUGUGGUAUAUUACCUGGUA [C6G C46A] was 0.153; that for GUCCUGUUUCACGUGCGCGUGAAAGAGAGAAGUUAACCAGAGAAACACACGUUGUGGUAUAUUACCUGGUA [C6G G34U] was 0.982; that for GUCCUGUUUCACGUGCGCGUGAAAGAGAGAAGUGAACCAGAUAAACACACGUUGUGGUAUAUUACCUGGUA [C6G G42U] was 0.113.
The value for GUCCUGUUUCACGUCCGCGUGAAAGAGAGAAGUGAACCAGAGAAACACACGUUGUGGUAUAUUACCUGGUA [C6G G15C] was 0.545; that for GUCCUGUUUCACGUGCGCGUGAAAGAGAGAAGUGAACCAGAGAAACACACGUUGUGGUAUAUUACCUGGGA [C6G U70G] was 0.361; that for GUCCUGUUUCACGUGCGCGUGAAAGAGAGAAGUGAACCAGAGAAACACACGUUGUGGUAUAUUACCUGGAA [C6G U70A] was 0.399.
Regarding GUCCUGUUUCAGGUGCGCGUGAAAGAGAGAAGUGAACCAGAGAAACACACGUUGUGGUAUAUUACCUGGUA [C6G C12G], the self-cleavage is 0.294.
To GUCCUGUUUCAAGUGCGCGUGAAAGAGAGAAGUGAACCAGAGAAACACACGUUGUGGUAUAUUACCUGGUA [C6G C12A] belongs 0.572.
